Reference: PMC7496822 (Arthritis & Rheumatology (Hoboken, N.j.), 2020)

B1: recombinant IgM of MALT lymphoma salivary gland sample M11 (antibody, V domains shown)
VH: QVQLVQSGAEVKKPGSSVKVSCRASGGTFSRYAISWVRQAPGQGLEWMGGIIPLFNTPNYAQKFQGRVTIIADESTSTAYMELSSLRSDDTAVYYCAREGIAAAVNPFDYWGQGTLVTVSS
VL: not shown
B2: recombinant IgM of MALT lymphoma salivary gland sample M5 (antibody, V domains shown)
VH: EVQLVESGGGLVQPGGSLRLSCAASGFTFSSYWMSWVRQAPGKGLEWVANIKEDGGGKYYVDSVKGRFTISRDNAKNSLYLQMNSLRVEDTAVYYCARGDFWSGDYIDAFDIWGQGTLVTVSS
VL: EIVMTQSPATLSVSPGERATLSCRASQSVSSNLAWYQQKPGQPPRLLIYGASTRATGIPARFSGGGSGTEFTLTISSLQSEDFALYYCQHYNNWPPWTFGQGTKVEIK
B3: recombinant IgM of MALT lymphoma salivary gland sample M22 (antibody, V domains shown)
VH: QVQLVQSGAEVKKSGSSVKVSCKASGGTFNNYAINWVRQAPGQGLEWMGGIIPIFGTPNYAQKFQGRVAITADKSTGTAYMELSSLRSEDTAVYYCARGSNDYGDNVPVQPYHYWGQGTLVTVSS
VL: EIVLTQSPGTLSLSPGERATLSCRASQSISSTYLAWYQQKPGQAPRLLIYGASSRATGIPDRFSGSGSGTDFTLTISRLEPEDFAMYYCQQFGSSPQTFGQGTKLEIK

molecular target: insulin from bovine pancreas (Bos taurus, UniProt P01317); assay: ELISA
Sequence (P01317 whole entry, looked up): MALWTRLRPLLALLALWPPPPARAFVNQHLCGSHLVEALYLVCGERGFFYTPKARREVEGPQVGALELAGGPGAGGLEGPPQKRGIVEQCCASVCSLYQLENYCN

Binding result, no binding (tested: up to 1 μg/ml IgM):
B1
B2
B3

molecular target: actin from bovine muscle (Bos taurus, UniProt P68138); assay: ELISA

Binding result, no binding (tested: up to 1 μg/ml IgM):
B1
B2
B3

molecular target: SSA/Ro52 (Homo sapiens (assumed), UniProt P19474); assay: ELISA
Sequence (P19474 whole entry): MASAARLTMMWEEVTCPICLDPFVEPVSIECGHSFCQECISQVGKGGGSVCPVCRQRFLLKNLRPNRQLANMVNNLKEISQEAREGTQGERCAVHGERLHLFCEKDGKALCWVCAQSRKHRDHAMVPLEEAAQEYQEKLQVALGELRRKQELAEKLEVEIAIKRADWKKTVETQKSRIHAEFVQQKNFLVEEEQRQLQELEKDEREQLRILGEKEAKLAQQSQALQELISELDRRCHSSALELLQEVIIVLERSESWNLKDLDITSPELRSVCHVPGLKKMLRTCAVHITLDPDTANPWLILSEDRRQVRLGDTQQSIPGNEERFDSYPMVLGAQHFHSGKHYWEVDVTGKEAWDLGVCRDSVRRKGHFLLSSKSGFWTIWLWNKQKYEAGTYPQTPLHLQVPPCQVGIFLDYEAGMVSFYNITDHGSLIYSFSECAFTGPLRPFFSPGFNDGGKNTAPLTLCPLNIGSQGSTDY

Binding result, no binding (tested: up to 1 μg/ml IgM):
B1
B2
B3

molecular target: SSA/Ro60 (Homo sapiens (assumed), UniProt P10155); assay: ELISA
Sequence (P10155 whole entry): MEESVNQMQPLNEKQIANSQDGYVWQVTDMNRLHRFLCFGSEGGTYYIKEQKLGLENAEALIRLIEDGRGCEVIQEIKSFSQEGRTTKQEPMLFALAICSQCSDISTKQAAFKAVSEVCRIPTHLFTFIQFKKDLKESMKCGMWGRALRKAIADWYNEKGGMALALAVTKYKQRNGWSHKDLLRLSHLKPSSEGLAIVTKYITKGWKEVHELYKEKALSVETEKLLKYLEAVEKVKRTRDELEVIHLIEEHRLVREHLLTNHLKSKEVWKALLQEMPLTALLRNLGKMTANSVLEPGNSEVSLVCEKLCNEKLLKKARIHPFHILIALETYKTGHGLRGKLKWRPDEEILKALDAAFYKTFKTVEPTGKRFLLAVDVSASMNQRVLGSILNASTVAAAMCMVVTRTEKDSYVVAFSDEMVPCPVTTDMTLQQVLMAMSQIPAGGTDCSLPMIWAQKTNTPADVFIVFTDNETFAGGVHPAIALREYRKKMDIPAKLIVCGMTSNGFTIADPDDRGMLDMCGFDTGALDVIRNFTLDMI

Binding result, no binding (tested: up to 1 μg/ml IgM):
B1
B2
B3
